Data published in patent US20090269810.
Numbering of substitutions follows the chain as printed.

B1: wild-type human ERp23 (protein)
chain: DRAPLTATAPQLDDEEMYSAHMPAHLRCDACRAVAYQMWQNLAKAETKLHTSNSGGRRELSELVYTDVLDRSCSRNWQDYGVREVDQVKRLTGPGLSEGPEPSISVMVTGGPWPTRLSRTCLHYLGEFGEDQIYEAHQQGRGALEALLCGGPQGACSEKVSATREEL
B2: human ERp23 Cys143Ser mutant (protein)
chain: B1 chain with C121S
B3: human ERp23 Cys50Ser mutant (protein)
chain: B1 chain with C28S
B4: human ERp23 Cys53Ser mutant (protein)
chain: B1 chain with C31S
B5: human ERp23 Cys50-178Ser mutant (protein)
chain: B1 chain with C28S, C156S
B6: human ERp23 Cys171Ser mutant (protein)
chain: B1 chain with C149S
B7: human ERp23 Cys95Ser mutant (protein)
chain: B1 chain with C73S
B8: human ERp23 Cys178Ser mutant (protein)
chain: B1 chain with C156S

biological target: HA-tagged mini HC (VH-CH1)

Row | Protein | oxidation of the CH1 domain of the mini HC | percentage of the fully oxidized form of the mini HC
1 | B1 | co-expression of wild-type human ERp23 resulted in oxidation of the CH1 domain in a portion of the HC even in the absence of LC | fully oxidizes ˜24% of the mini HC
2 | B2 | All of the remaining single cysteine mutants had significantly reduced activity, which in most cases was similar to that observed when no ERp23 was co-expressed | –
3 | B3 | – | showed a similar ability to oxidize the CH1 domain (i.e., 20%)
4 | B4 | All of the remaining single cysteine mutants had significantly reduced activity, which in most cases was similar to that observed when no ERp23 was co-expressed | –
5 | B5 | only the Cys50-178Ser mutant still retained activity | –
6 | B6 | All of the remaining single cysteine mutants had significantly reduced activity, which in most cases was similar to that observed when no ERp23 was co-expressed | –
7 | B7 | All of the remaining single cysteine mutants had significantly reduced activity, which in most cases was similar to that observed when no ERp23 was co-expressed | –
8 | B8 | also showed some activity, although it was slightly weaker than that observed with wild-type ERp23 or the Cys50Ser mutant | –
